The subject of data set [1] is T1, internally quenched fluorogenic peptide substrate with P1-methylarginine.
T1 sequence: IRRSSYSFKK

The test system of data set [2] is T2, internally quenched fluorogenic peptide substrate with P1-arginine.
T2 sequence: IRRSSYSFKK

The target of data set [3] is T3, internally quenched fluorogenic peptide substrate with P1-methylarginine.
T3 chain: IRRSSYSFKK

Data set [4] deals with T4, internally quenched fluorogenic peptide substrate with P1-arginine.
T4 chain: IRRSSYSFKK

The next data set concerns the target T5, mouse zymogen NSP4 (mZ) (mouse, UniProt Q14B24 36-284).
T5 construct: mature; Expressed in CHO cells; also called mZ-NSP4; mZ (NSP4); not shown: N-terminal FLAG tag cleavable by enteropeptidase (cleavage after Asp-Asp-Asp-Asp-Lys)
T5 sequence (looked up): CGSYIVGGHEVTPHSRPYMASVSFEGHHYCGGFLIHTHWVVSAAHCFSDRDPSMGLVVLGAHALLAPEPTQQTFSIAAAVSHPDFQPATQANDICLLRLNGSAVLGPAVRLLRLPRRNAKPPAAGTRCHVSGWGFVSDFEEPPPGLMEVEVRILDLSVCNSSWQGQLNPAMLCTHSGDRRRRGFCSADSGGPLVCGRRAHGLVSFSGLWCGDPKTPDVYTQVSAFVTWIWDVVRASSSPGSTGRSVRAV
The experiment in a line: BLI affinity class in summary table.

The target in the next data set is T6, mouse active NSP4 (mA) (mouse, UniProt Q14B24 36-284).
T6 construct: mature; also called mA-NSP4; mA (NSP4)
T6 sequence (looked up): T5 sequence (looked up)
The experiment in a line: BLI affinity class in summary table.

For a further data set, the target named is T7, human active NSP4 (hA) (human, UniProt Q6UWY2 34-283).
T7 construct: range 34-283; For crystals partly deglycosylated with Endo F3 (FFR-cmk complex) or fully glycosylated (VLK-cmk complex); also called hA-NSP4; hA (NSP4)
T7 sequence (looked up): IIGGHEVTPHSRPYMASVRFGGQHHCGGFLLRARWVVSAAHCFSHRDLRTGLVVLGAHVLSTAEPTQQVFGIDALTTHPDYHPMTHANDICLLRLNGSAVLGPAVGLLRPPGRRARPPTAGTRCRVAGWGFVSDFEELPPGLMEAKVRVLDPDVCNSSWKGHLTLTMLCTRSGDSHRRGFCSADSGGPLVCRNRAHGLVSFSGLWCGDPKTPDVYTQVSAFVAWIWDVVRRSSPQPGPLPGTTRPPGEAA
The experiment in a line: BLI affinity class in summary table.

In data set [5] the target is human zymogen NSP4 (hZ) (human) (UniProt Q6UWY2). Kind of data set: competition phage ELISA (phage IC50); soluble hZ-NSP4 against plate-coated NSP4. In general terms: ELISA stands for enzyme-linked immunosorbent assay.
For data set [6] the target is unchanged. Kind of data set: BLI affinity class in summary table.
The target of data set [7] is T8, mouse active NSP4 (mA) (mouse), Q14B24.
T8 chain: T5 sequence (looked up)
Kind of data set: BLI affinity class in summary table. Particulars: remark: other sources report otherwise.

Data set [8] shares this target. Kind of data set: competition phage ELISA (phage IC50); soluble mA-NSP4 against plate-coated NSP4. Particulars: remark: other sources report otherwise.

Where “and” joins values, the source holds several entries; their conditions need not be identical. Identical values can stand only once. Like-named read-outs stand apart in the source and are kept apart here.

In the case of Factor Xa, in data set [1], the “cleavage of fluorogenic peptide with P1-methylarginine” value is on record as “factor Xa, with a canonical S1 pocket could only cleave unmodified P1-Arg substrate”. The “cleavage of fluorogenic peptide with P1-arginine” value in [2] is “factor Xa, with a canonical S1 pocket could only cleave unmodified P1-Arg substrate”.

B1: human active NSP4 (hA) (protein)
chain: T7 sequence (looked up)
Consider B1, for which the “cleavage of fluorogenic peptide with P1-methylarginine” value in data set [3] is listed as “NSP4 could indeed cleave after methylarginine”. Besides, the “kcat/KM of fluorogenic peptide cleavage” value in [4] is “WT (BEVS) kcat/KM=1.1×10^4±2.1×10^3 M^-1 s^-1”.

B2: human wild-type NSP4 produced in CHO cells, activated (protein)
chain: T7 sequence (looked up)
Turning to B2, in [4], the “kcat/KM of fluorogenic peptide cleavage” value is recorded as “WT (CHO) kcat/KM=7.5×10^3 ±1.1×10^3 M^-1s^-1”.

B3: anti-NSP4 antibody 2-4 (antibody, human IgG1, V domains shown)
VH: EVQLVESGGGLVQPGGSLRLSCAASGFTFSDYWISWVRQAPGKGLEWVAGISPNNGDTYYADSVKGRFTISADTSKNTAYLQMNSLRAEDTAVYYCAREDDDERDYAMDYWGQGTLVTVSS
VL: DIQMTQSPSSLSASVGDRVTITCRASQDVSTAVAWYQQKPGKAPKLLIYSASFLYSGVPSRFSGSGSGTDFTLTISSLQPEDFATYYCQQSYTTPPTFGQGTKVEIKR
notes: also called clone 2-4
As usually defined, the Kd is the equilibrium constant for the complex coming apart. Lower therefore signals a tighter complex. As a reminder, the IC50 is the concentration needed to halve the response being measured. The low end stands for higher potency, the high end for lower potency. B3: the Kd (with mouse zymogen NSP4 (mZ); with mouse active NSP4 (mA); with human active NSP4 (hA); in [6]) was under 50 nM throughout. The same molecule displayed an IC50 in data set [5] of 2.3 nM.

B4: anti-NSP4 antibody 1-1 (antibody, human IgG1, V domains shown)
VH: EVQLVESGGGLVQPGGSLRLSCAASGFTFSGSWISWVRQAPGKGLEWVGTISPYNGSTYYADSVKGRFTISADTSKNTAYLQMNSLRAEDTAVYYCARVLRPKVYASVMDYWGQGTLVTVSS
VL: B3 VL
Take B4: the concentration for half-maximal inhibition (IC50) in [5] turned out to be 155 nM. Further, the Kd in data set [6] is > 50 nM and < 1000 nM.

B5: anti-NSP4 antibody 2-5 (antibody, human IgG1, V domains shown)
VH: EVQLVESGGGLVQPGGSLRLSCAASGFTFTGYGISWVRQAPGKGLEWVGWIYPASGATYYADSVKGRFTISADTSKNTAYLQMNSLRAEDTAVYYCARHRAFDWYPYYIGSSVMDYWGQGTLVTVSS
VL: B3 VL
notes: also called clone 2-5
As for B5, the Kd (in the data set with mouse zymogen NSP4 (mZ); in [6]) was under 50 nM each time. The molecule further had an IC50 in [5] of 22 nM.

B6: anti-NSP4 antibody 1-3 (antibody, human IgG1, V domains shown)
VH: EVQLVESGGGLVQPGGSLRLSCAASGFTFSDNWISWVRQAPGKGLEWVGYIYPASGYTDYADSVKGRFTISADTSKNTAYLQMNSLRAEDTAVYYCASDSPHAYWYAMDYWGQGTLVTVSS
VL: B3 VL
Consider B6, for which the IC50 in [5] is 52 nM. For the same molecule, the Kd in data set [6] was > 50 nM and < 1000 nM.

B7: anti-NSP4 antibody 4-4 (antibody, human IgG1, V domains shown)
VH: EVQLVESGGGLVQPGGSLRLSCAASGFTFTSTSIHWVRQAPGKGLEWVAEITPHGGYTNYADSVKGRFTISADTSKNTAYLQMNSLRAEDTAVYYCARGRTKWGWLYGMDYWGQGTLVTVSS
VL: B3 VL
notes: also called clone 4-4
In the case of B7, the Kd is under 50 nM with human active NSP4 (hA); > 50 nM and < 1000 nM in [6].

B8: anti-NSP4 antibody 4-2 (antibody, human IgG1, V domains shown)
VH: EVQLVESGGGLVQPGGSLRLSCAASGFTFSGSDISWVRQAPGKGLEWVGEIYPSNGDTYYADSVKGRFTISADTSKNTAYLQMNSLRAEDTAVYYCARSVRPSWWAMDYWGQGTLVTVSS
VL: B3 VL
notes: also called clone 4-2
For B8, the Kd was under 50 nM with human active NSP4 (hA); > 50 nM and < 1000 nM in data set [6].

B9: anti-NSP4 antibody 2-3 (antibody, human IgG1, V domains shown)
VH: EVQLVESGGGLVQPGGSLRLSCAASGFTFTDSDISWVRQAPGKGLEWVAWISPSDGATDYADSVKGRFTISADTSKNTAYLQMNSLRAEDTAVYYCAHEASDDDYAIDYWGQGTLVTVSS
VL: B3 VL
notes: also called clone 2-3
For the molecule B9, the Kd (with mouse zymogen NSP4 (mZ); with mouse active NSP4 (mA); with human active NSP4 (hA); in data set [6]) was under 50 nM each time. In data set [5], the IC50 was found to be 3.07 nM.

B10: anti-NSP4 antibody 3-2 (antibody, human IgG1, V domains shown)
VH: EVQLVESGGGLVQPGGSLRLSCAASGFTFSDYSISWVRQAPGKGLEWVGEINPAGGATYYADSVKGRFTISADTSKNTAYLQMNSLRAEDTAVYYCARGDFPFWSDAYYVMDYWGQGTLVTVSS
VL: B3 VL
notes: also called Ab 3-2; clone 3-2
Turning to B10, the Kd with mouse zymogen NSP4 (mZ) and with mouse active NSP4 (mA) was under 50 nM throughout.

B11: anti-NSP4 antibody 2-1 (antibody, human IgG1, V domains shown)
VH: EVQLVESGGGLVQPGGSLRLSCAASGFTFTDYSIHWVRQAPGKGLEWVAEIYPYSGDTYYADSVKGRFTISADTSKNTAYLQMNSLRAEDTAVYYCARDGDGWFDWAMDYWGQGTLVTVSS
VL: B3 VL
notes: also called clone 2-1
As for B11, the Kd (with mouse zymogen NSP4 (mZ); with mouse active NSP4 (mA); with human active NSP4 (hA); in [6]) was under 50 nM in each case. This molecule also showed an IC50 in data set [5] of 7.62 nM.

B12: anti-NSP4 antibody 1-5 (antibody, human IgG1, V domains shown)
VH: EVQLVESGGGLVQPGGSLRLSCAASGFTFTNNSISWVRQAPGKGLEWVGAISPNNGSTYYADSVKGRFTISADTSKNTAYLQMNSLRAEDTAVYYCARNAWHYSWVGVMDYWGQGTLVTVSS
VL: B3 VL
For the molecule B12, in [5], the half-maximal inhibitory concentration (IC50) was found to be 114 nM. For the same molecule, the Kd in data set [6] is > 50 nM and < 1000 nM.

B13: anti-NSP4 antibody 1-2 (antibody, human IgG1, V domains shown)
VH: EVQLVESGGGLVQPGGSLRLSCAASGFTFSGYSIHWVRQAPGKGLEWVAGISPTNGYTDYADSVKGRFTISADTSKNTAYLQMNSLRAEDTAVYYCARLVFYRGVMDYWGQGTLVTVSS
VL: B3 VL
For the molecule B13, the IC50 in data set [5] worked out at 22.1 nM. Also, the Kd in [6] was under 50 nM.

B14: anti-NSP4 antibody 5-1 (antibody, human IgG1, V domains shown)
VH: EVQLVESGGGLVQPGGSLRLSCAASGFTFSGSGIHWVRQAPGKGLEWVAWISPTGGNTYYADSVKGRFTISADTSKNTAYLQMNSLRAEDTAVYYCAKSLFHNVAFDYWGQGTLVTVSS
VL: B3 VL
In [7], B14 returned a Kd of under 50 nM. The molecule also came in with an IC50 in [8] of 9.93 nM.

B15: anti-NSP4 antibody 5-3 (antibody, V domains shown)
VH: EVQLVESGGGLVQPGGSLRLSCAASGFTFSGNDISWVRQAPGKGLEWVAGISPYGGSTYYADSVKGRFTISADTSKNTAYLQMNSLRAEDTAVYYCARRVSFYSRHAGMDYWGQGTLVTVSS
VL: B3 VL
Molecule B15 displayed a Kd in [7] of under 50 nM. Further, the IC50 in data set [8] was found to be 319 nM.

B16: anti-NSP4 antibody 5-4 (antibody, V domains shown)
VH: EVQLVESGGGLVQPGGSLRLSCAASGFTFTSYAISWVRQAPGKGLEWVAGISPSNGYTNYADSVKGRFTISADTSKNTAYLQMNSLRAEDTAVYYCARAGRWTHSDIDYWGQGTLVTVSS
VL: B3 VL
In the case of B16, the Kd in data set [7] was under 50 nM. Further, the IC50 in data set [8] was determined as 60.5 nM.

B17: anti-NSP4 antibody 2-2 (antibody, human IgG1, V domains shown)
VH: EVQLVESGGGLVQPGGSLRLSCAASGFTFSSTAISWVRQAPGKGLEWVGEIYPSDGYTDYADSVKGRFTISADTSKNTAYLQMNSLRAEDTAVYYCARVKWAVSSLGVMDYWGQGTLVTVSS
VL: B3 VL
notes: also called clone 2-2
For B17, the Kd (in the data set with mouse zymogen NSP4 (mZ); in data set [6]) was under 50 nM each time. The same molecule yielded an IC50 in data set [5] of 10.4 nM.

B18: anti-NSP4 antibody 3-5 (antibody, human IgG1, V domains shown)
VH: EVQLVESGGGLVQPGGSLRLSCAASGFTFSDNDISWVRQAPGKGLEWVGSISPDNGDTNYADSVKGRFTISADTSKNTAYLQMNSLRAEDTAVYYCARDDVPAVFTSAMDYWGQGTLVTVSS
VL: B3 VL
notes: also called Ab 3-5; Ab35
In the case of B18, the Kd (with mouse zymogen NSP4 (mZ); with mouse active NSP4 (mA); with human active NSP4 (hA); in [6]) was under 50 nM in each case.
